Reference: patent US20090304746A1
Like-named read-outs stand apart in the source and are kept apart here.

Assays:
HLA-A*1101 (human) [1] = molecular target: HLA-A*1101 (human)
HLA-A*0301 (human) [2] = test: competition with 125I-labelled standard peptide on purified HLA, gel filtration
HLA-A*0301 (human) [3] = test: as above; remark: listed apart in the source
HLA-A*0301 (human) [4] = molecular target: HLA-A*0301 (human)
HLA-A*0301 (human) [5] = test: competition with 125I-labeled standard peptide on purified HLA, gel filtration
HLA-A*1101 (human) [6] = test: as above
HLA-B*0702 (Human) = test: competition with 125I-labelled standard peptide for purified HLA, gel filtration
HLA-B*5101 (Human) = test: as above
HLA-B*5401 (Human) = test: as above
HLA-B*3501 (Human) = test: as above
HLA-B*5301 (Human) = test: as above
HLA-A*0301 (human) [7] = molecular target: HLA-A*0301 (human); remark: listed apart in the source
HLA-A*1101 (human) [8] = molecular target: HLA-A*1101 (human); remark: listed apart in the source
[9] = remark: other sources report otherwise

Q: KTKRNTNRR (modifications not checked) [HCV peptide … (polyprotein position 10)] was tested. Which binding affinity ratio (IC50 of standard peptide / IC50 of test peptide) (HLA-A*1101 (human) [1]; [9]) did it give?
A: Its binding affinity ratio (IC50 of standard peptide / IC50 of test peptide) is 0.01.

Q: What about the binding affinity ratio (IC50 of standard peptide / IC50 of test peptide) (HLA-A*0301 (human) [2]) of the same binder?
A: The binding affinity ratio (IC50 of standard peptide / IC50 of test peptide) was 0.011.

Q: What about the binding affinity ratio (IC50 of standard peptide / IC50 of test peptide) (HLA-A*0301 (human) [3]) of the same binder?
A: Its binding affinity ratio (IC50 of standard peptide / IC50 of test peptide) is 0.011.

Q: With LIVFPDLGVR (modifications not checked) [HCV peptide … (polyprotein position 2612)] as the binder, how does the binding affinity ratio (IC50 of standard peptide / IC50 of test peptide) (HLA-A*0301 (human) [4]) read?
A: Its binding affinity ratio (IC50 of standard peptide / IC50 of test peptide) is 0.0003.

Q: What does the source list for PTDPRRRSR (modifications not checked) [HCV peptide … (polyprotein position 109)]?
A: binding affinity ratio (IC50 of standard peptide / IC50 of test peptide) (HLA-A*1101 (human) [1]): 0.0005; binding affinity ratio (IC50 of standard peptide / IC50 of test peptide) (HLA-A*0301 (human) [3]): 0.0008

Q: PVVVGTTDR (modifications not checked) [HCV peptide … (polyprotein position 516)] was tested. Which binding affinity ratio (IC50 of standard peptide / IC50 of test peptide) (HLA-A*0301 (human) [4]) did it give?
A: The binding affinity ratio (IC50 of standard peptide / IC50 of test peptide) was 0.0008.

Q: What about the binding affinity ratio (IC50 of standard peptide / IC50 of test peptide) (HLA-A*1101 (human) [1]) of the same binder?
A: Its binding affinity ratio (IC50 of standard peptide / IC50 of test peptide) is 0.0005.

Q: With SASQLSAPSLK (modifications not checked) [HCV peptide … (polyprotein position 2207)] as the binder, how does the binding affinity ratio (IC50 of standard peptide / IC50 of test peptide) (HLA-A*0301 (human) [4]) read?
A: The binding affinity ratio (IC50 of standard peptide / IC50 of test peptide) was 0.0003.

Q: What about the binding affinity ratio (IC50 of standard peptide / IC50 of test peptide) (HLA-A*1101 (human) [1]) of the same binder?
A: Its binding affinity ratio (IC50 of standard peptide / IC50 of test peptide) is 0.0044.

Q: For YLLPRRGPR (modifications not checked) [HCV peptide … (HCV polyprotein position 35)], which binding affinity ratio (IC50 of standard peptide / IC50 of test peptide) (HLA-A*0301 (human) [5]; [9]) is on record?
A: The binding affinity ratio (IC50 of standard peptide / IC50 of test peptide) was 0.0054.

Q: What about the binding affinity ratio (IC50 of standard peptide / IC50 of test peptide) (HLA-A*1101 (human) [6]; [9]) of the same binder?
A: The binding affinity ratio (IC50 of standard peptide / IC50 of test peptide) was 0.0005.

Q: Which results are given for YVPESDAAAR (modifications not checked) [HCV peptide … (HCV polyprotein position 1939)]?
A: binding affinity ratio (IC50 of standard peptide / IC50 of test peptide) (HLA-A*0301 (human) [5]): 0.0003; binding affinity ratio (IC50 of standard peptide / IC50 of test peptide) (HLA-A*1101 (human) [6]): 0.0001

Q: With LPVCQDHLEF (modifications not checked) as the binder, how does the binding affinity ratio (IC50 standard/IC50 test) (HLA-B*0702 (Human); [9]) read?
A: The binding affinity ratio (IC50 standard/IC50 test) was 0.0001.

Q: What about the binding affinity ratio (IC50 standard/IC50 test) (HLA-B*5101 (Human); [9]) of the same binder?
A: Its binding affinity ratio (IC50 standard/IC50 test) is 0.0002.

Q: What about the binding affinity ratio (IC50 standard/IC50 test) (HLA-B*5401 (Human); [9]) of the same binder?
A: Its binding affinity ratio (IC50 standard/IC50 test) is 0.0003.

Q: How did the binding affinity ratio (IC50 standard/IC50 test) (HLA-B*0702 (Human)) turn out when NPSVAATLGF (modifications not checked) was run?
A: The binding affinity ratio (IC50 standard/IC50 test) was 0.0001.

Q: And the binding affinity ratio (IC50 standard/IC50 test) (HLA-B*3501 (Human))?
A: Its binding affinity ratio (IC50 standard/IC50 test) is 0.0001.

Q: And the binding affinity ratio (IC50 standard/IC50 test) (HLA-B*5101 (Human))?
A: The binding affinity ratio (IC50 standard/IC50 test) was 0.0002.

Q: And the binding affinity ratio (IC50 standard/IC50 test) (HLA-B*5301 (Human))?
A: Its binding affinity ratio (IC50 standard/IC50 test) is 0.0001.

Q: And the binding affinity ratio (IC50 standard/IC50 test) (HLA-B*5401 (Human))?
A: The binding affinity ratio (IC50 standard/IC50 test) was 0.0003.

Q: For PPPSWDQMW (modifications not checked), which binding affinity ratio (IC50 standard/IC50 test) (HLA-B*0702 (Human)) is on record?
A: The binding affinity ratio (IC50 standard/IC50 test) was 0.0001.

Q: And the binding affinity ratio (IC50 standard/IC50 test) (HLA-B*3501 (Human))?
A: Its binding affinity ratio (IC50 standard/IC50 test) is 0.0002.

Q: What about the binding affinity ratio (IC50 standard/IC50 test) (HLA-B*5101 (Human)) of the same binder?
A: The binding affinity ratio (IC50 standard/IC50 test) was 0.0001.

Q: And the binding affinity ratio (IC50 standard/IC50 test) (HLA-B*5301 (Human))?
A: The binding affinity ratio (IC50 standard/IC50 test) was 0.0001.

Q: What about the binding affinity ratio (IC50 standard/IC50 test) (HLA-B*5401 (Human)) of the same binder?
A: Its binding affinity ratio (IC50 standard/IC50 test) is 0.0002.

Q: How did the binding affinity ratio (IC50 standard/IC50 test) (HLA-B*0702 (Human)) turn out when QPEYDLELI (modifications not checked) was run?
A: Its binding affinity ratio (IC50 standard/IC50 test) is 0.0001.

Q: And the binding affinity ratio (IC50 standard/IC50 test) (HLA-B*3501 (Human))?
A: Its binding affinity ratio (IC50 standard/IC50 test) is 0.0002.

Q: What about the binding affinity ratio (IC50 standard/IC50 test) (HLA-B*5101 (Human)) of the same binder?
A: The binding affinity ratio (IC50 standard/IC50 test) was 0.0002.

Q: And the binding affinity ratio (IC50 standard/IC50 test) (HLA-B*5301 (Human))?
A: The binding affinity ratio (IC50 standard/IC50 test) was 0.0001.

Q: And the binding affinity ratio (IC50 standard/IC50 test) (HLA-B*5401 (Human))?
A: The binding affinity ratio (IC50 standard/IC50 test) was 0.0002.

Q: Which binding affinity ratio (IC50 standard/IC50 test) (HLA-B*0702 (Human)) does the source give for QPGYPWPLY (modifications not checked) here?
A: The binding affinity ratio (IC50 standard/IC50 test) was 0.0001.

Q: What about the binding affinity ratio (IC50 standard/IC50 test) (HLA-B*5101 (Human)) of the same binder?
A: Its binding affinity ratio (IC50 standard/IC50 test) is 0.0002.

Q: And the binding affinity ratio (IC50 standard/IC50 test) (HLA-B*5301 (Human))?
A: Its binding affinity ratio (IC50 standard/IC50 test) is 0.0001.

Q: And the binding affinity ratio (IC50 standard/IC50 test) (HLA-B*5401 (Human))?
A: The binding affinity ratio (IC50 standard/IC50 test) was 0.0002.

Q: With IAFASRGNH (modifications not checked) [HCV peptide … (polyprotein position 1925)] as the binder, how does the binding affinity ratio (IC50 of standard peptide / IC50 of test peptide) (HLA-A*0301 (human) [2]) read?
A: Its binding affinity ratio (IC50 of standard peptide / IC50 of test peptide) is 0.0003.

Q: With TGLTHIDAH (modifications not checked) [… (HCV polyprotein position 1568)] as the binder, how does the binding affinity ratio (IC50 of standard peptide / IC50 of test peptide) (HLA-A*0301 (human) [7]) read?
A: Its binding affinity ratio (IC50 of standard peptide / IC50 of test peptide) is 0.0003.

Q: TSERSQPRGR (modifications not checked) [… (HCV polyprotein position 52)] was tested. Which binding affinity ratio (IC50 of standard peptide / IC50 of test peptide) (HLA-A*0301 (human) [7]) did it give?
A: The binding affinity ratio (IC50 of standard peptide / IC50 of test peptide) was 0.0003.

Q: How did the binding affinity ratio (IC50 of standard peptide / IC50 of test peptide) (HLA-A*0301 (human) [7]) turn out when TSMLTDPSH (modifications not checked) [… (HCV polyprotein position 2177)] was run?
A: Its binding affinity ratio (IC50 of standard peptide / IC50 of test peptide) is 0.0003.

Q: VAYQATVCAR (modifications not checked) [… (HCV polyprotein position 1592)] was tested. Which binding affinity ratio (IC50 of standard peptide / IC50 of test peptide) (HLA-A*0301 (human) [7]) did it give?
A: Its binding affinity ratio (IC50 of standard peptide / IC50 of test peptide) is 0.0005.

Q: How did the binding affinity ratio (IC50 of standard peptide / IC50 of test peptide) (HLA-A*1101 (human) [8]) turn out when GGRHLIFCH (modifications not checked) [… (HCV polyprotein position 1392)] was run?
A: The binding affinity ratio (IC50 of standard peptide / IC50 of test peptide) was 0.0001.

Q: With GVLAALAAY (modifications not checked) [… (HCV polyprotein position 1670)] as the binder, how does the binding affinity ratio (IC50 of standard peptide / IC50 of test peptide) (HLA-A*1101 (human) [8]) read?
A: Its binding affinity ratio (IC50 of standard peptide / IC50 of test peptide) is 0.011.
